From paper PMC9482650, “Quantitative fragmentomics allow affinity mapping of interactomes” (Nature Communications, 2022)

T1: USH1C_2, Q9Y6N9
T1 sequence (Q9Y6N9 206-303, limits assumed, looked up): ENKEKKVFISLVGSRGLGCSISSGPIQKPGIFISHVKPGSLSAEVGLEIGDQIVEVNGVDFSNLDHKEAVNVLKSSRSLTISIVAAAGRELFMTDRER

T2: PDZD11, Q5EBL8
T2 sequence (Q5EBL8 42-139, limits assumed, looked up): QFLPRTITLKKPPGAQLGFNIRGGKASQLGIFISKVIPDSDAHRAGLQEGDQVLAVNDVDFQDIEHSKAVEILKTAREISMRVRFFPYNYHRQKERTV

T3: SNTB2, Q13425
T3 sequence (Q13425 110-208, limits assumed, looked up): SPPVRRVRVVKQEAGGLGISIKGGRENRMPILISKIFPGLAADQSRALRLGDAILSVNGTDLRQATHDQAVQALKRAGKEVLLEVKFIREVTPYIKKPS

T4: MPP5, Q8N3R9
T4 sequence (Q8N3R9 251-346, limits assumed, looked up): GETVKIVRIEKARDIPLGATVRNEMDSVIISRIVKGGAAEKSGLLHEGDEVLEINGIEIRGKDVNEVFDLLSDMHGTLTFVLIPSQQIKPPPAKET

T5: MLLT4, P55196
T5 sequence (P55196 1002-1103, limits assumed, looked up): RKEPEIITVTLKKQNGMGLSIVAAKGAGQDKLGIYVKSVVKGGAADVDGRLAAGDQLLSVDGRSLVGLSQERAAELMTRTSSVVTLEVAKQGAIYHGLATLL

T6: USH1C_1, Q9Y6N9
T6 sequence (Q9Y6N9 82-179, limits assumed, looked up): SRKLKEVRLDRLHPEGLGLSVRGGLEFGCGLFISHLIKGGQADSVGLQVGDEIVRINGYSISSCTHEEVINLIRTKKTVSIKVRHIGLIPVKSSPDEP

T7: RGS12, O14924
T7 sequence (O14924 17-108, limits assumed, looked up): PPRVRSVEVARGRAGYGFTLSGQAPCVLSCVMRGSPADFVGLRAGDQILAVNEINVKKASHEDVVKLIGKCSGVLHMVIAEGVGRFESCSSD

T8: MPDZ_13, O75970
T8 sequence (O75970 1982-2070, limits assumed, looked up): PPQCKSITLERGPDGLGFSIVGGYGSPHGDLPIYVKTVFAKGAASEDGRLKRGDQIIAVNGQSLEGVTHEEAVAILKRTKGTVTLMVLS

T9: PDZD2_4, O15018
T9 sequence (O15018 723-823, limits assumed, looked up): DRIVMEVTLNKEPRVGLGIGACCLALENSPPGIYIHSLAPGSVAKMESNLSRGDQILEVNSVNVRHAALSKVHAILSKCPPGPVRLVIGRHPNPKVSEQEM

T10: PREX2_2, Q70Z35
T10 sequence (Q70Z35 672-764, limits assumed, looked up): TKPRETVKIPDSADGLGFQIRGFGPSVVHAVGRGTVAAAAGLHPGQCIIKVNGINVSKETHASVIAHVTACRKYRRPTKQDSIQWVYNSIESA

T11: NHERF3_2, Q5T2W1
T11 sequence (Q5T2W1 129-225, limits assumed, looked up): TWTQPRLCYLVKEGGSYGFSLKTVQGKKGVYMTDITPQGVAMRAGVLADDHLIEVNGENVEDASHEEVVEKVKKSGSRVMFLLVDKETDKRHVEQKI

T12: GIPC1, O14908
T12 sequence (O14908 128-223, limits assumed, looked up): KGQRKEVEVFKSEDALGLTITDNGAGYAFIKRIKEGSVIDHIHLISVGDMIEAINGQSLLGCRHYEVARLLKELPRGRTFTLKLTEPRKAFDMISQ

T13: GRIP1_1, Q9Y3R0
T13 sequence (Q9Y3R0 48-146, limits assumed, looked up): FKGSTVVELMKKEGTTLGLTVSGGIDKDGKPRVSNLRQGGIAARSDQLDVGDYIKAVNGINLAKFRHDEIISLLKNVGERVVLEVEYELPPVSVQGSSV

T14: MPDZ_2, O75970
T14 sequence (O75970 252-347, limits assumed, looked up): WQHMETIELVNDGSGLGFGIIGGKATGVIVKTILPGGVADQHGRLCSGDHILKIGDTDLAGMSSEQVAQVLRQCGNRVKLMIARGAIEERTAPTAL


Key:
Assay in all cases: holdup assay
Design in all cases: key: below the threshold = too weak to quantify, mostly under pKd 3.1 to 4
Settings in all cases: plain residues with an end cap or a label only (N-terminal biotin on a linker: ttds)
[1] = molecular target: T1, USH1C_2, Q9Y6N9
[2] = molecular target: T2, PDZD11, Q5EBL8
[3] = molecular target: RIMS1, Q86UR5
RIMS1, Q86UR5, sequence (Q86UR5 584-692): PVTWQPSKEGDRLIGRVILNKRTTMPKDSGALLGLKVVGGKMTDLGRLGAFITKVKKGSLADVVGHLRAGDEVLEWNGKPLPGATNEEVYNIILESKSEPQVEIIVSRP

[4] = molecular target: T3, SNTB2, Q13425
[5] = molecular target: PDLIM4, P50479
PDLIM4, P50479, sequence (P50479 1-83): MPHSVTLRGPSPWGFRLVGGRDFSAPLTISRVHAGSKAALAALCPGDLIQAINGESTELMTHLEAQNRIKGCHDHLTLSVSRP

[6] = molecular target: T4, MPP5, Q8N3R9
[7] = molecular target: MAGI3_4, Q5TCQ9
MAGI3_4, Q5TCQ9, sequence (Q5TCQ9 716-815): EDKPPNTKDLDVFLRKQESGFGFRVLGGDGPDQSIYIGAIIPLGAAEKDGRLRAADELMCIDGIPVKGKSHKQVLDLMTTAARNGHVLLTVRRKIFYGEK

[8] = molecular target: MAGI3_3, Q5TCQ9
MAGI3_3, Q5TCQ9, sequence (Q5TCQ9 572-655): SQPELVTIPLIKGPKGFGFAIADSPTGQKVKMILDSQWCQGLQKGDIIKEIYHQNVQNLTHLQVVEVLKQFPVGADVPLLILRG

[9] = molecular target: T5, MLLT4, P55196
[10] = molecular target: MAGI1_4, Q96QZ7
MAGI1_4, Q96QZ7, sequence (Q96QZ7 other isoform, or with tags, fused parts or gaps): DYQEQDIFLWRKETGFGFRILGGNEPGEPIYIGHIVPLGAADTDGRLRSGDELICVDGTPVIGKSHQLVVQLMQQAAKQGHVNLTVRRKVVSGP

[11] = molecular target: T6, USH1C_1, Q9Y6N9
[12] = molecular target: T7, RGS12, O14924
[13] = molecular target: T8, MPDZ_13, O75970
[14] = molecular target: AHNAK2, Q8IVF2
AHNAK2, Q8IVF2, sequence (Q8IVF2 108-193): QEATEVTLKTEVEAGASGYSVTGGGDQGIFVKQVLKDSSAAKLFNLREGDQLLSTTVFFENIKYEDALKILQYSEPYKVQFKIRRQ

[15] = molecular target: T9, PDZD2_4, O15018
[16] = molecular target: CNKSR3, Q6P9H4
CNKSR3, Q6P9H4, sequence (Q6P9H4 203-303): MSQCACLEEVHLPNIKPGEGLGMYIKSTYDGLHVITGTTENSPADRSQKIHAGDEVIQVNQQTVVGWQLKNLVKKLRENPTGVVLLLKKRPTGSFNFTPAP

[17] = molecular target: T10, PREX2_2, Q70Z35
[18] = molecular target: T11, NHERF3_2, Q5T2W1
[19] = molecular target: T12, GIPC1, O14908
[20] = molecular target: T13, GRIP1_1, Q9Y3R0
[21] = molecular target: PARD3B_3, Q8TEW8
PARD3B_3, Q8TEW8, sequence (Q8TEW8 490-594): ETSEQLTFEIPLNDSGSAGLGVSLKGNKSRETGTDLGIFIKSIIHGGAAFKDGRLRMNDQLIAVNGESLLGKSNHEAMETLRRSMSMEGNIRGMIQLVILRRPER

[22] = molecular target: T14, MPDZ_2, O75970

Row | Binder | pKd [1] | pKd [2] | pKd [3] | pKd [4] | pKd [5] | pKd [6] | pKd [7] | pKd [8] | pKd [9] | pKd [11] | pKd [12] | pKd [13] | pKd [15] | pKd [16] | pKd [17] | pKd [18] | pKd [19] | pKd [20] | pKd [21] | pKd [22] | further results
1 | SRSRRRETAL [HPV33-E6, P06427] | below the threshold | below the threshold | below the threshold | 4.56 | below the threshold | below the threshold | below the threshold | below the threshold | below the threshold | below the threshold | 4.5 | below the threshold | below the threshold | below the threshold | below the threshold | below the threshold | below the threshold | below the threshold | below the threshold | below the threshold | pKd [10]: below the threshold; pKd [14]: below the threshold
2 | SSIDLWETAL [SLC15A5, A6NIM6] | below the threshold | below the threshold | below the threshold | 5.54 | below the threshold | below the threshold | below the threshold | below the threshold | below the threshold | 4.64 | below the threshold | below the threshold | below the threshold | below the threshold | below the threshold | below the threshold | below the threshold | below the threshold | below the threshold | below the threshold | pKd [10]: below the threshold; pKd [14]: below the threshold
3 | SGGKRKETLV [NET1, Q7Z628] |  | below the threshold | below the threshold |  | below the threshold | below the threshold | below the threshold | below the threshold | 4.02 | below the threshold | below the threshold | 3.75 | below the threshold | below the threshold | 3.79 | below the threshold | 4.28 | below the threshold | below the threshold | 3.75 | 
4 | PPRQRSETQV [HPV82-E6, Q9IR59] | below the threshold | below the threshold | below the threshold | below the threshold | below the threshold | below the threshold | below the threshold | below the threshold | below the threshold | below the threshold | below the threshold | below the threshold | 4.53 | below the threshold | below the threshold | below the threshold | 4.27 | below the threshold | below the threshold | below the threshold | pKd [10]: 4.2; pKd [14]: below the threshold
